Test results from patent publication US20080009038A1 (Chugai, published 2008).
Substitutions are numbered along the chain they refer to. One block for each binder: values may come before it.

How the values were obtained:
[1] = target: full-length human Mp1 expressed on BaF3 cells (human) (UniProt P40238); experiment: cell-based or functional assay
human Mp1 = target: T1, human Mp1 (human, UniProt P40238 26-491, limits assumed); experiment: hybridoma supernatants; ELISA on shMp1-FLAG and hMp1-Fc, flow cytometry on CHO-human Mp1 cells, BaF3-human Mp1 proliferation
T1 construct: The analyses of section 1.6 used shMp1-FLAG and hMp1-Fc in ELISA, and CHO-human Mp1 and BaF3-human Mp1 cells; also called human Mpl; TPO receptor
T1 sequence (looked up): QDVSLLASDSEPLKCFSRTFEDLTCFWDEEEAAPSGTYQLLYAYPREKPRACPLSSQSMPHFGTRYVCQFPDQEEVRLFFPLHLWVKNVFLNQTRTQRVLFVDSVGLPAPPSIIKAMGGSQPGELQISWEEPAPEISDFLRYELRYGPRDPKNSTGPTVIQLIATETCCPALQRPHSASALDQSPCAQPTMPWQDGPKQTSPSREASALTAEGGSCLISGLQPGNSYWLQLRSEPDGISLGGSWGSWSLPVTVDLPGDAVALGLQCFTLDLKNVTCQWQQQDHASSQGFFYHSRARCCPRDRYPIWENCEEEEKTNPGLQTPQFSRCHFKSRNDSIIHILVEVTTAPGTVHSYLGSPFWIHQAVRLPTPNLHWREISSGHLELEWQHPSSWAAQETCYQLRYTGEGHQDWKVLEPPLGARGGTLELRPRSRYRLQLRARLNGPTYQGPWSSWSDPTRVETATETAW
Protocol: MRL/MpJUmmCrj-lpr/lpr mice (hereinafter abbreviated as “MRL/lpr mice”; purchased from Charles River, Japan) were immunized; the primary immunization was carried out at eight weeks of age. For every single mouse, an emulsion containing 100 μg of shMPL-FLAG combined with Freud's complete adjuvant (H37 Ra; Beckton Dickinson), was administered subcutaneously as the primary injection. As a booster injection, an emulsion containing shMPL-FLAG (50 μg per mouse) combined with Freud's incomplete adjuvant (Beckton Dickinson) was administered subcutaneously. Three mice which have been immunized six times in total were subjected to a final injection of shMPL-FLAG (50 μg per mouse) through the caudal vein. Cell fusion was achieved by mixing the mouse myeloma P3-X63Ag8U1 cells (P3U1; purchased from ATCC) and mouse splenocytes using polyethylene glycol 1500 (Roche Diagnostics). Hybridoma selection in HAT medium began the following day and culture supernatants were obtained. Screening was carried out by ELISA using immunoplates with immobilized shMp1-FLAG or hMp1-Fc, and by a cell proliferation assay of BaF3-hMp1. Positive clones were isolated as single clones by limiting dilution and then cultured on a large scale. The culture supernatants were collected. Anti-human Mp1 antibody-producing hybridomas, VB22B, VB16, VB140, and VB45B, were obtained by this method.

agonistic activity (EC50 value: pM) in BaF3-human Mpl, cell proliferation (WST-8) [1]: 89 pM
B4: VB140 diabody (scFv, V domains shown, part only)
VH: QVQLQQSGPELVKPGASVKISCRAFGYAFSNSWMNWVKQRPGKGLEWIGRIYPGDGETNNNGKFKGKATLTADKSSSTAYMQLSSLTSEDSAVYFCARGYGDYSFAYWGQGTLVTVSA
VL: DIVMTQAAPSVPVTPGESVSISCRSSKSLLHSNGNTYLYWFLQRPGQSPQLLIYRMSNLASGVPDRFSGSGSGAAFTLRISRVEAEDVGVYYCMQHLEYPYTFGSGTKLEIK
modifications: (Gly4Ser)1 linker; C-terminal FLAG tag

binding result (human Mp1): binds
B5: anti-human Mp1 antibody VB22B (antibody, mouse IgG2b, V domains shown)
VH: B4 VH with R23K, F25S, S30T, N59I, N60Y, K65R, G66V, Q82D, L83I, G101D
VL: B4 VL with V11I, A74T, L97I, Y101F
notes: Mouse monoclonal antibody from a hybridoma, tested as culture supernatant; they were cloned with primers for the mouse IgG2b and kappa constant regions

agonistic activity (EC50 value: pM) in BaF3-human Mpl, cell proliferation (WST-8) [1]: 30 pM
B8: VB45B sc(Fv)2 (scFv, part only; not given: linkers and FLAG tag, part only)
scFv, part: QVQLQQSGPELVKPGASVKISCKASGYAFSSSWMNWVKQRPGKGLEWIGRIYPGDGETNNNGKFKGKATLTADKSSTTAYMQLSSLTSEDSAVYFCARGYGDYSFAYWGQGTLVTVSADIVMTQAAPSVPVTPGESVSISCRSSKSLLHSNGNTYLYWFLQRPGQSPQLLIYRMSNLASGVPDRFSGSGSGAAFTLRISRVEAEDVGVYYCMQHLEYPYTFGSGTKLEIKQVQLQQSGPELVKPGASVKISCKASGYAFSSSWMNWVKQRPGKGLEWIGRIYPGDGETNNNGKFKGKATLTADKSSTTAYMQLSSLTSEDSAVYFCARGYGDYSFAYWGQGTLVTVSADIVMTQAAPSVPVTPGESVSISCRSSKSLLHSNGNTYLYWFLQRPGQSPQLLIYRMSNLASGVPDRFSGSGSGAAFTLRISRVEAEDVGVYYCMQHLEYPYTFGSGTKLEIK

agonistic activity (EC50 value: pM) in BaF3-human Mpl, cell proliferation (WST-8) [1]: 38 pM
B9: VB140 sc(Fv)2 (scFv, part only; not given: linkers and FLAG tag, part only)
scFv, part: B8 scFv, part with K23R, S25F, S31N, T77S, K253R, S255F, S261N, T307S

The remaining lines, values behind:

B1: TA136 diabody (scFv, V domains shown, part only)
VH: DVQLQESGPGLVKPSQSLSLTCTVTGYSITSDYAWSWIRQLPGNKLEWMGYITYSGYSIYNPSLKSRISISRDTSKNQLFLQLNSVTTEDTATYYCVGGYDNMDYWGQGTSVTVSS
VL: QIVLTQSPAIMSASPGEKVTLTCSASSSVSSSHLYWYQQKPGSSPKLWIYSTSNLASGVPARFSGSGSGTSYSLTISNMETEDAASYFCHQWSSYPWTFGGGTKLEIK
modifications: (Gly4Ser)1 linker; C-terminal FLAG tag
agonistic activity (EC50 value: pM) in BaF3-human Mpl, cell proliferation (WST-8) [1]: 3080 pM

B2: VB16 sc(Fv)2 (scFv, part only; not given: linkers and FLAG tag, part only)
scFv, part: QVQLQQPGTELVRPGASVKLSCKASGYTFTDYWVNWVKQRPGRGLEWIGRIHPYDSETHYNQKFKNKATLTVDKSSSTAYIQLSSLTSEDSAVYYCASGGWFASWGQGTLVTVSADIVMTQAAPSVPVTPGESVSISCRSSKSLLYSNGNTYLYWFLQRPGQSPQLLIYRMSNLASGVPDRFSGSGSGTAFTLTISSVEAEDVGVYYCMQHLEYPYTFGSGTKLEIKQVQLQQPGTELVRPGASVKLSCKASGYTFTDYWVNWVKQRPGRGLEWIGRIHPYDSETHYNQKFKNKATLTVDKSSSTAYIQLSSLTSEDSAVYYCASGGWFASWGQGTLVTVSADIVMTQAAPSVPVTPGESVSISCRSSKSLLYSNGNTYLYWFLQRPGQSPQLLIYRMSNLASGVPDRFSGSGSGTAFTLTISSVEAEDVGVYYCMQHLEYPYTFGSGTKLEIK
agonistic activity (EC50 value: pM) in BaF3-human Mpl, cell proliferation (WST-8) [1]: 95 pM

B3: VB16 diabody (scFv, V domains shown, part only)
VH: QVQLQQPGTELVRPGASVKLSCKASGYTFTDYWVNWVKQRPGRGLEWIGRIHPYDSETHYNQKFKNKATLTVDKSSSTAYIQLSSLTSEDSAVYYCASGGWFASWGQGTLVTVSA
VL: B4 VL with H31Y, A74T, R79T, R82S
modifications: (Gly4Ser)1 linker; C-terminal FLAG tag
agonistic activity (EC50 value: pM) in BaF3-human Mpl, cell proliferation (WST-8) [1]: 190 pM

B6: VB45B diabody (scFv, V domains shown, part only)
VH: B4 VH with R23K, F25S, N31S, S77T
VL: B4 VL
modifications: (Gly4Ser)1 linker; C-terminal FLAG tag
agonistic activity (EC50 value: pM) in BaF3-human Mpl, cell proliferation (WST-8) [1]: 76 pM

B7: TA136 sc(Fv)2 (scFv, part only; not given: linkers and FLAG tag, part only)
scFv, part: DVQLQESGPGLVKPSQSLSLTCTVTGYSITSDYAWSWIRQLPGNKLEWMGYITYSGYSIYNPSLKSRISISRDTSKNQLFLQLNSVTTEDTATYYCVGGYDNMDYWGQGTSVTVSSQIVLTQSPAIMSASPGEKVTLTCSASSSVSSSHLYWYQQKPGSSPKLWIYSTSNLASGVPARFSGSGSGTSYSLTISNMETEDAASYFCHQWSSYPWTFGGGTKLEIKDVQLQESGPGLVKPSQSLSLTCTVTGYSITSDYAWSWIRQLPGNKLEWMGYITYSGYSIYNPSLKSRISISRDTSKNQLFLQLNSVTTEDTATYYCVGGYDNMDYWGQGTSVTVSSQIVLTQSPAIMSASPGEKVTLTCSASSSVSSSHLYWYQQKPGSSPKLWIYSTSNLASGVPARFSGSGSGTSYSLTISNMETEDAASYFCHQWSSYPWTFGGGTKLEIK
agonistic activity (EC50 value: pM) in BaF3-human Mpl, cell proliferation (WST-8) [1]: 54 pM
